One assay has as its target ADAMTS-4 (human) (UniProt O75173). Kind of assay: cell-based or functional assay.
Another assay addresses ADAMTS-5 (human) (UniProt Q9UNA0). In words: cell-based or functional assay.

This passage reports IC50 needed to inhibit cartilage catabolism by the protease, IC50 for inhibiting cartilage catabolism of bovine cartilage explants by 500 ng/ml ADAMTS-5 and Maximum inhibition of ADAMTS-5-induced cartilage catabolism results from patent publication US20150174221A1.

Sequence of UniProt Q9UNA0 (Q9UNA0 262-622 limits assumed): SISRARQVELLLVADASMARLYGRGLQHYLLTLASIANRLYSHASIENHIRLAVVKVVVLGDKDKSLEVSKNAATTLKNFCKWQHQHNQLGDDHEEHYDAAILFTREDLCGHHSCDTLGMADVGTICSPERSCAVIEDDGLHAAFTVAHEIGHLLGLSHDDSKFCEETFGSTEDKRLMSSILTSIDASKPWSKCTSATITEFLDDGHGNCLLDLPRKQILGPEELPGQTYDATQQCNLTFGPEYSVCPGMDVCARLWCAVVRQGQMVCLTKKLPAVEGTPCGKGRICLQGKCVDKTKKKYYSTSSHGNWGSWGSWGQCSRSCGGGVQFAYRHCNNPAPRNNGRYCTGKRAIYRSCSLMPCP
Sequence of UniProt O75173 (O75173 213-685 limits assumed): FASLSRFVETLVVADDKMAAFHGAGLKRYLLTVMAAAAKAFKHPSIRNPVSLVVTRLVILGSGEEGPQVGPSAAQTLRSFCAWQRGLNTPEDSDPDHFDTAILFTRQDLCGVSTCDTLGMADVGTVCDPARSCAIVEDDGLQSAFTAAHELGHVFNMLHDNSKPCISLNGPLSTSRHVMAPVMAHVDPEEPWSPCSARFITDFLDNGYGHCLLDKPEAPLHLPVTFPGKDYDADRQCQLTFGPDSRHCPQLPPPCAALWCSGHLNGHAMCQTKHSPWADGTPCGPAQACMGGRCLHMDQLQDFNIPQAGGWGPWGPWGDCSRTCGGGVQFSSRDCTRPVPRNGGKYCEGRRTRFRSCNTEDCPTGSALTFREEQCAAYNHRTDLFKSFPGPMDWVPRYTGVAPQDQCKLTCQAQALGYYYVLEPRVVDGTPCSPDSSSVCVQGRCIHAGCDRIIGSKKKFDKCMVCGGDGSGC

Substance “purified human A2M (alpha-2-macroglobulin) (from UniProt P01023 24-1474)” came in with an IC50 needed to inhibit cartilage catabolism by the protease with ADAMTS-4 (human) of 3 µg/mL. In the assay with ADAMTS-5 (human), this substance yielded an IC50 for inhibiting cartilage catabolism of bovine cartilage explants by 500 ng/ml ADAMTS-5 of 7 µg/mL, an IC50 needed to inhibit cartilage catabolism by the protease of 7 µg/mL and a Maximum inhibition of ADAMTS-5-induced cartilage catabolism of 90%.
